Experiments:
[1] = system: luciferase reporter gene linked to a 5′ her2 UTR; experiment: luciferase constructs with 3′ her2 UTR variants transfected into SKBR3 cells; format: cell-based; details: 48 hours after transfection
Procedure: A luciferase reporter gene is linked to 3′ her2 UTR variants to make various constructs (see FIG. 6). Each construct is transfected into cell-lines, SKBR3 cells in particular, using Fugene® (Hoffmann-La Roche Inc., Nutley, N.J.), and the luciferase activity is measured 48 hours after transfection. The results are expressed as a fold-increase in luciferase activity over the repression caused by a 5′ her2 UTR (SEQ ID NO: 6) linked to the luciferase reporter gene (see FIG. 6). A 5′ her2 UTR represses translation of a reporter gene, such as luciferase.

[2] = system: capped-5′+3′ UTR-luciferase RNA; experiment: in vitro rabbit reticulocyte translation of capped reporter RNA in the presence of competitor RNA; format: biochemical; details: for inhibition of translation of capped-5′+3′ UTR-luciferase RNA relative to absence of competitor RNA: 5-fold molar excess of competitor RNA, 60 minutes at 37° C., FIG. 1
Procedure: A 73-residue region from a 3′ her2 UTR (SEQ ID NO: 1) and an N-terminal 310-residue region from a 3′ her2 UTR (SEQ ID NO: 5) are cloned into a construct downstream of a T7-promoter. RNA encoded for by these regions is synthesized using a T7-in vitro transcription kit (Ambion, Inc.; Austin, Tex.).
To quantitate the maximum level of translation, a capped-5′+3′ UTR-luciferase RNA (0.057 pmoles) is translated in an in vitro rabbit reticulocyte translation system for 60 minutes at 37° C. Then, a capped-5′+3′ UTR-luciferase RNA is translated in the presence of between a 5- to 500-fold molar excess of RNA from either the 73-residue region from a 3′ her2 UTR (SEQ ID NO: 1) or the N-terminal 310-residue region from a 3′ her2 UTR (SEQ ID NO: 5) under the same conditions.
Capped, in vitro-transcribed Her2 5′ UTR-luciferase-Her2 3′ UTR (5H3H-Luc) and vector only-luciferase (Vector-Luc) are translated in the presence or absence of competitor RNA fragments derived from a Her-2 3′ UTR. Nucleic acid molecules derived from nucleotides 468-540 of a Her2 3′ UTR (468-540) and from residues 468-615 of a Her2 3′ UTR (468-615) each contain the 73-nucleotide sequence (SEQ ID NO:1) essential for suppression of 5′ Her2 UTR repression. […] The percentage of inhibition of expression is less in the presence of the 1-310 fragment with respect to the percentage of inhibition of expression in the presence of either of the nucleic acid molecules containing SEQ ID NO: 1, 468-615 and 468-540. The percentage of inhibition for the 1-310 fragment is dose-dependent, whereas even at only a 5-fold molar excess of competitor RNA conatining SEQ ID NO: 1, expression is only at 25% of the maximum level of translation.

[3] = system: Ship-2 uORF; experiment: chimeric luciferase constructs with Ship-2 5′ UTR in SKBR3 cells; format: cell-based; details: in combination with a Ship-2 5′ UTR, FIG. 7
Description: Ship-2 mRNA contains a 33 nucleotide uORF (encoding 10 amino acids) that is located 14 nucleotides upstream of the main ORF. The uORF strongly represses translation of the main ORF.
The presence of TRE1 in the 3′ UTR, when in combination with a Ship-2 5′ UTR, increases expression of luciferase about 5-fold relative to luciferase being flanked by 3′ and 5′ Ship-2 UTRs. Luciferase expression increases when flanked by a 5′ Ship-2 UTR and a chimeric 3′ UTR, consisting of 328 residues of Ship-2 3′ UTR flanked by the 5′ and 3′ end seqeunces of the Her-23′ UTR, relative to luciferase being flanked by 3′ and 5′ Ship-2 UTRs. […] The presence of the 3′ Her2 UTR residues 1-110 (SEQ ID NO: 28) in the chimeric 3′ UTR results in a slight increase in luciferase expression relative to 3′ Ship-2 UTR. Suppression of translational repression occurs in cells with chimeric constructs expressing a Ship-2 3′ UTR containing only TRE1 (SEQ ID NO: 1) from a Her-23′ UTR.

[4] = system: 48-kDa polypeptide; experiment: UV-crosslinking of 32P-labeled RNA with SKBR3 cytoplasmic extracts; format: binding; details: for competition for binding of the 48-kDa polypeptide to full-length, labeled Her2 3′ UTR: FIG. 10B; for UV-crosslinking of the 48-kDa polypeptide to labeled RNA: SKBR3 cytoplasmic extracts, FIG. 10A
Procedure: Total protein from cancer cell lines is incubated with 10 fmoles of ^32P-UTP-labeled RNA for 1 hour at 37° C. in a final volume of 20 μl using Binding Buffer (20 mM Hepes-KOH, pH 7.5, 2.5 mM MgCl2, 100 mM KCl, 20% glycerol, 0.5 mM dithiothreitol, protease inhibitor tablets). Reaction mixtures are UV-irradiated at 254 nm for 10 minutes with a StrataLinker® 11800 (Stratagene; La Jolla, Calif.) in Costar® 96-Well Cell Culture Clusters (CORNING COSTAR Co., Cambridge, Mass.) on ice. The reaction mixtures are then treated with RNAse A (2 mg/ml) for 30 minutes at 37° C. The samples are analyzed by 12% or 10-14% Criterion™ gels (Bio-Rad Laboratories, Inc., Hercules, Calif.) by Sodium Dodecyl Sulfate-Polyacrylamide gel electrophoresis (SDS-PAGE) and are detected by autoradiography.
To study the role of trans-acting factors in modulating interactions between 5′ and 3′ UTRs, in vitro transcripts are synthesized, labeled, and incubated with cytoplasmic extracts from SKBR3 cells. After UV-crosslinking, unprotected areas of labeled RNA are digested with RNAse A, and the remaining labeled RNA molecules are resolved on SDS-PAGE.
Instead, a minimal binding region of […], corresponding to the nucleotide sequence from residue 490 to residue 510 of a 3′ Her2 UTR, is essential for the 48-kDa polypeptide to UV-crosslink to a Her2 3′ UTR. […] In comparison, competition with a 500-fold molar excess of nucleic acid molecules with sequences derived from the Her2 5′ UTR is ineffective in titrating out the 48-kDa polypepide.

[5] = system: luciferase reporter gene linked to a 5′ her2 UTR; experiment: luciferase reporter constructs with her2 UTRs transfected into a panel of cell lines; format: cell-based; details: luciferase activity 48 hours after transfection
Procedure: A luciferase reporter gene is linked to her2 UTRs to make various constructs (see FIG. 2). Each construct is transfected into a panel of cell-lines using Fugene® (Hoffmann-La Roche Inc., Nutley, N.J.), and the luciferase activity is measured 48 hours after transfection. The results are expressed as a fold-increase in luciferase activity over the repression caused by the 5′ her2 UTR linked to the luciferase reporter gene. A 5′ her2 UTR (SEQ ID NO: 6) represses translation of a luciferase reporter gene. […] The greatest modulation is observed in the mammalian cancer cell lines that over-express Her2 protein, SKBR-3 and BT-474, about 13-fold and about 10-fold, respectively, showing that the efficiency of translation of a luciferase reporter gene mRNA in Her2 positive cells is regulated by interactions of regions in the 5′ her2 UTR and the 3′ her2 UTR. Moreover, the effect is more pronounced in high Her2 expressing cells relative to low Her2 expressing cell lines, especially for breast cancer cells.

B1: SEQ ID NO: 29: Her2 3′ UTR variant with nucleotides 1-110 deleted at the 5′ end, in a luciferase construct (nucleic acid)
DNA: CCTGCCATGCCAGGAACCTGTCCTAAGGAACCTTCCTTCCTGCTTGAGTTCCCAGATGGCTGGAAGGGGTCCAGCCTCGTTGGAAGAGGAACAGCACTGGGGAGTCTTTGTGGATTCTGAGGCCCTGCCCAATGAGACTCTAGGGTCCAGTGGATGCCACAGCCCAGCTTGGCCCTTTCCTTCCAGATCCTGGGTACTGAAAGCCTTAGGGAAGCTGGCCTGAGAGGGGAAGCGGCCCTAAGGGAGTGTCTAAGAACAAAAGCGACCCATTCAGAGACTGTCCCTGAAACCTAGTACTGCCCCCCATGAGGAAGGAACAGCAATGGTGTCAGTATCCAGGCTTTGTACAGAGTGCTTTTCTGTTTAGTTTTTACTTTTTTTGTTTTGTTTTTTTAAAGACGAAATAAAGACCCAGGGGAGAATGGGTGTTGTATGGGGAGGCAAGTGTGGGGGGTCCTTCTCCACACCCACTTTGTCCATTTGCAAATATATTTTGGAAAAC
modifications: luciferase construct
notes: Her2 3′ UTR variant with nucleotides 1-110 deleted at the 5′ end, in a luciferase construct
- fold-increase in luciferase expression over 5′ her2 UTR+Luc [1]: 1.7±0.9 fold

B2: SEQ ID NO: 5: first 310 nucleotides of the Her2 3′ UTR, does not contain SEQ ID NO: 1; competitor RNA (nucleic acid)
DNA: TGAACCAGAAGGCCAAGTCCGCAGAAGCCCTGATGTGTCCTCAGGGAGCAGGGAAGGCCTGACTTCTGCTGGCATCAAGAGGTGGGAGGGCCCTCCGACCACTTCCAGGGGAACCTGCCATGCCAGGAACCTGTCCTAAGGAACCTTCCTTCCTGCTTGAGTTCCCAGATGGCTGGAAGGGGTCCAGCCTCGTTGGAAGAGGAACAGCACTGGGGAGTCTTTGTGGATTCTGAGGCCCTGCCCAATGAGACTCTAGGGTCCAGTGGATGCCACAGCCCAGCTTGGCCCTTTCCTTCCAGATCCTGGGTAC
- inhibition of translation of capped-5′+3′ UTR-luciferase RNA relative to absence of competitor RNA [2]: not significantly inhibited
- percentage of inhibition of expression, dependence on amount of competitor ([2]; competitor RNA, FIG. 9): dose-dependent

B3: SEQ ID NO: 1: 73-residue region (residues 468-540) from a 3′ her2 UTR, translational regulatory element TRE1; used as competitor RNA (nucleic acid)
DNA: CTTTTCTGTTTAGTTTTTACTTTTTTTGTTTTGTTTTTTTAAAGACGAAATAAAGACCCAGGGGAGAATGGGT
modifications: competitor RNA from UTR region, further chemistry not given here
- inhibition of translation of capped-5′+3′ UTR-luciferase RNA relative to absence of competitor RNA [2]: about 75%
- increase of luciferase expression relative to luciferase flanked by 3′ and 5′ Ship-2 UTRs [3]: about 5 fold
- competition for binding of the 48-kDa polypeptide to full-length, labeled Her2 3′ UTR ([4]; 50-fold molar excess of unlabeled competitor): prevents binding
- UV-crosslinking of the 48-kDa polypeptide to labeled RNA [4]: crosslinks

B4: 3′ her2 UTR: naturally occurring Her2 3′ UTR, linked downstream of luciferase in reporter constructs (nucleic acid)
DNA: TGAACCAGAAGGCCAAGTCCGCAGAAGCCCTGATGTGTCCTCAGGGAGCAGGGAAGGCCTGACTTCTGCTGGCATCAAGAGGTGGGAGGGCCCTCCGACCACTTCCAGGGGAACCTGCCATGCCAGGAACCTGTCCTAAGGAACCTTCCTTCCTGCTTGAGTTCCCAGATGGCTGGAAGGGGTCCAGCCTCGTTGGAAGAGGAACAGCACTGGGGAGTCTTTGTGGATTCTGAGGCCCTGCCCAATGAGACTCTAGGGTCCAGTGGATGCCACAGCCCAGCTTGGCCCTTTCCTTCCAGATCCTGGGTACTGAAAGCCTTAGGGAAGCTGGCCTGAGAGGGGAAGCGGCCCTAAGGGAGTGTCTAAGAACAAAAGCGACCCATTCAGAGACTGTCCCTGAAACCTAGTACTGCCCCCCATGAGGAAGGAACAGCAATGGTGTCAGTATCCAGGCTTTGTACAGAGTGCTTTTCTGTTTAGTTTTTACTTTTTTTGTTTTGTTTTTTTAAAGACGAAATAAAGACCCAGGGGAGAATGGGTGTTGTATGGGGAGGCAAGTGTGGGGGGTCCTTCTCCACACCCACTTTGTCCATTTGCAAATATATTTTGGAAAAC
- Fold-increase over 5′ UTR Average ([5]; 293T): 1.54 ± 1.0
- Fold-increase over 5′ UTR Average ([5]; HeLa): 2.23 ± 0.5
- Fold-increase over 5′ UTR Average ([5]; Hs578.1): 2 ± 0.5
- UV-crosslinking of the 48-kDa polypeptide to labeled RNA [4]: crosslinks

B5: Her2 5′ UTR: naturally occurring Her2 5′ UTR; RNA probe and competitor in UV-crosslinking (nucleic acid)
DNA: GGCTGCTTGAGGAAGTATAAGAATGAAGTTGTGAAGCTGAGATTCCCCTCCATTGGGACCGGAGAAACCAGGGGAGCCCCCCGGGCAGCCGCGCGCCCCTTCCCACGGGGCCCTTTACTGCGCCGCGCGCCCGGCCCCCACCCCTCGCAGCACCCCGCGCCCCGCGCCCTCCCAGCCGGGTCCAGCCGGAGCCATGGGGCCGGAGCCGCAGTGAGCACC
- competition for binding of the 48-kDa polypeptide to full-length, labeled Her2 3′ UTR ([4]; 500-fold molar excess of competitor): ineffective
- UV-crosslinking of the 48-kDa polypeptide to labeled RNA [4]: does not crosslink
